In publication PMC4187121, “Flexible Enantioselectivity of Tryptophanase Attributable to Benzene Ring in Heterocyclic Moiety of D-Tryptophan” (Life : Open Access Journal, 2012) one finds Km, kcat and kcat/Km data, which are given here for one substance.

In data set [1] the test system is T1, N[C@@H](Cc1c[nH]c2ccccc12)C(=O)O.
T1 construct: purchased Sigma-Aldrich Co. (St. Louis, MO, USA)
The experiment in a line: L-tryptophan degradation by tryptophanase, kinetic and inhibition analysis (indole formation, Ehrlich reagent). The note with it: other: L-tryptophan degradation, pH 8.3. In kind it is biochemical, E. coli. On the procedure: When tryptophanase degraded L-tryptophan, all reaction mixtures included 0.2 mM of pyridoxal 5′-phosphate and 0.23 μM of tryptophanase in 100 mM potassium phosphate buffer of pH 8.3. DAP concentrations were prepared to the required concentrations of 0, 0.6, 1.2, 1.9 or 3.1 M. L-tryptophan. The reaction mixture was prepared to a concentration of 98, 108, 128, 137, 147, 167, 196, 225, 245, 294, 343, 392, 490, 680 or 980μM for kinetic analyses. Reactions were performed at 37 °C for 30 min in a Dry Thermo Unit DTU-1B (Taitec, Tokyo, Japan). Although D-tryptophan in addition to L-tryptophan was also degraded into indole in the presence of DAP, an indole production amount from D-tryptophan was neglected at this reaction temperature and time because the catalytic efficiency for D-tryptophan was 0.3% of that for L-tryptophan. On the other hand, the reaction condition of D-tryptophan degradation differed in several ways from that of L-tryptophan degradation. Each concentration of pyridoxal 5′-phosphate and tryptophanase was 1.2 mM and 0.92μM, and additionally reaction temperature and time was 55 °C and 2 h, respectively. All the other reaction conditions were the same as in the L-tryptophan degradation.
The total volume of the reaction mixture was 2 mL per tube. The reaction was stopped by adding 2 mL of n-butanol, which was vigorously mixed and then immediately centrifuged at approximately 1,000 G for 10 min. After centrifugation, the reaction mixture was separated into two layers of butanol and aqueous solutions in which indole was equally distributed. The supernatant butanol layer was extracted to be mixed with an equal volume of Ehrlich reagent, then colored red at 60 °C for 30 min in Dry Thermo Unit. […] Tryptophanase activity was assayed in triplicate at the same substrate concentration and then averaged. Initial velocity was computed based on the averaged value.
(§1) Initial velocities were defined by indole that formed within 1 minute after 1 mg of tryptophanase was added. Then the reciprocal of (initial velocity/[E] (enzyme concentration)) (ordinate) versus the reciprocal of substrate concentration (abscissa) was drawn for each concentration of L- or D-tryptophan. These double-reciprocal plots were drawn based on the least squares method to calculate kinetic parameters. Kcatwas determined from the reciprocal of the intercepts of these double-reciprocal plots, and the Michaelis constant Km from substrate concentration at 1/v = 0 in the absence of inhibitor. In noncompetitive inhibition, two inhibition constants of Ki (=[E][I]/[EI], E: enzyme; I: inhibitor; EI: enzyme-inhibitor complex) and Ki' (=[ES][I]/[ESI], ES: enzyme-substrate complex; ESI: enzyme-substrate-inhibitor complex) were determined from the slopes and from the intercepts, respectively. In the mixed type inhibition, Ki and Ki' were determined from x and y coordinates of the fixed point in the second quadrant.

Data set [2] relates to T2, N[C@H](Cc1c[nH]c2ccccc12)C(=O)O.
T2 construct: purchased Sigma-Aldrich Co. (St. Louis, MO, USA)
The experiment in a line: D-tryptophan degradation by tryptophanase in the presence of 3.1 M DAP, kinetic and inhibition analysis. In kind it is biochemical, E. coli. The note with it: other: 3.1 M DAP, 55 °C, pH 8.3. On the procedure: When tryptophanase degraded L-tryptophan, all reaction mixtures included 0.2 mM of pyridoxal 5′-phosphate and 0.23 μM of tryptophanase in 100 mM potassium phosphate buffer of pH 8.3. DAP concentrations were prepared to the required concentrations of 0, 0.6, 1.2, 1.9 or 3.1 M. L-tryptophan. The reaction mixture was prepared to a concentration of 98, 108, 128, 137, 147, 167, 196, 225, 245, 294, 343, 392, 490, 680 or 980μM for kinetic analyses. Reactions were performed at 37 °C for 30 min in a Dry Thermo Unit DTU-1B (Taitec, Tokyo, Japan). […]
as §1, with “Then the reciprocal of (initial velocity/[E] (enzyme concentration)) (ordinate) versus the reciprocal of substrate concentration (abscissa) was drawn for each concentration of L- or D-tryptophan. These double-reciprocal plots were drawn based on the least squares method to calculate kinetic parameters.” left out

The term Km denotes the concentration of substrate that gives half-maximal velocity. As a reminder, the kcat is the maximal rate divided by the concentration of active sites. Broadly, the kcat/Km is the second-order rate constant that governs catalysis at low substrate concentration. Take tryptophanase (Escherichia coli K-12): the Km in data set [1] (DAP 0 M) stood at 300 µM; in data set [1] (DAP 0.6 M) it was 200 µM; in data set [1] (DAP 1.2 M), 200 µM; in data set [1] (DAP 1.9 M), 200 µM; in data set [1] (DAP 3.1 M) it was 200 µM; in data set [2], 600 µM. For the same substance, the kcat in data set [1] (DAP 0 M) was 0.4 s⁻¹; in data set [1] (DAP 0.6 M) it was 0.18 s⁻¹; in data set [1] (DAP 1.2 M), 0.15 s⁻¹; in data set [1] (DAP 1.9 M), 0.11 s⁻¹; in data set [1] (DAP 3.1 M), 0.07 s⁻¹; in data set [2], 0.07 s⁻¹. Also, the kcat/Km in data set [1] (DAP 0 M) turned out to be 1300 M⁻¹ s⁻¹; in data set [1] (DAP 0.6 M), 900 M⁻¹ s⁻¹; in data set [1] (DAP 1.2 M), 800 M⁻¹ s⁻¹; in data set [1] (DAP 1.9 M), 600 M⁻¹ s⁻¹; in data set [1] (DAP 3.1 M), 400 M⁻¹ s⁻¹.
